Read-outs that look alike come from different tables or passages of the source.
Key:
[1] = Example 21 hydrogen peroxide decomposition with sequenced POAA and hypochlorite in deionized and contaminated water; assay type: physicochemical; conditions: water not containing any biological contamination
Source text: Additional evaluation of the process of using peroxide-reducing agents in sequence was further analyzed as shown in Table 32 using additional water samples, including deionized water (i.e. not contaminated), and the Control (as set forth above as a contaminated water source).
The peracetic acid and sodium hypochlorite are indistinguishable in titration, and are therefore presumed to consist of ½ of the titrateable material; however the focus of the evaluation was solely on the hydrogen peroxide decomposition.

[2] = assay type: physicochemical
Protocol: Field of use applications were analyzed to determine the amount of a peroxide-reducing enzyme necessary to obtain desired concentrations of both peracid and hydrogen peroxide in a treated water source. EnviroSan (POAA) peracid composition was added to water to reach the targeted POAA concentrations set forth in Table 18, and the concentration of both POAA and H2O2 were confirmed by iodometric titration. Then catalase (ES2000) was added to the solution, and the sample was stored under ambient conditions. The concentration of POAA and H2O2 were monitored by the iodometric conditions.

[3] = Catalase 0.5 ppm, Time 1 hr, run starting at 14.6 ppm POAA
[4] = Catalase 1.0 ppm, Time 1 hr, run starting at 30.1 ppm POAA

Compound | impact on the decomposition of hydrogen peroxide [1] | selectivity of H2O2 decomposition versus POAA stability [2] | H2O2(ppm) ([2]; Catalase 0.5 ppm, Time 0 hr, run starting at 14.6 ppm POAA) | H2O2(ppm) [2, 3] [ppm] | POAA (ppm) [2, 3] [ppm] | POAA (ppm) ([2]; Catalase 0.5 ppm, Time 1 hr, run starting at 31.1 ppm POAA) | H2O2(ppm) ([2]; Catalase 0.5 ppm, Time 2 hr, run starting at 14.6 ppm POAA) | H2O2(ppm) ([2]; Catalase 0.5 ppm, Time 2 hr, run starting at 31.1 ppm POAA) | H2O2(ppm) ([2]; Catalase 0.5 ppm, Time 3.6 hr, run starting at 14.6 ppm POAA) | H2O2(ppm) ([2]; Catalase 0.5 ppm, Time 3.6 hr, run starting at 31.1 ppm POAA) | H2O2(ppm) ([2]; Catalase 1.0 ppm, Time 1 hr, run starting at 14.8 ppm POAA) | H2O2(ppm) [2, 4] [ppm] | POAA (ppm) [2, 4] [ppm] | H2O2(ppm) ([2]; Catalase 1.0 ppm, Time 2 hr, run starting at 14.8 ppm POAA) | H2O2(ppm) ([2]; Catalase 1.0 ppm, Time 2 hr, run starting at 30.1 ppm POAA) | H2O2(ppm) ([2]; Catalase 1.0 ppm, Time 3.6 hr, run starting at 14.8 ppm POAA) | H2O2(ppm) ([2]; Catalase 1.0 ppm, Time 3.6 hr, run starting at 30.1 ppm POAA) | lowest catalase concentration treating pond water with POAA and H2O2 ([2]; within 4 hours, ambient conditions) [ppm]
OCl [hypochlorite, sodium hypochlorite] | efficacious impact on the decomposition of hydrogen peroxide |  |  |  |  |  |  |  |  |  |  |  |  |  |  |  |  | 
catalase |  | selectively decomposes the H2O2 without having any negative impact on POAA stability | 12.0 | 7.5 | 15.0 | 32.0 | 6.5 | 7.8 | 1.8 | 3.4 | 3.7 | 7.6 | 31.0 | 1.1 | 2.3 | 0.4 | 0.0 | 0.5

— patent US9926214B2, “Use of peracetic acid/hydrogen peroxide and peroxide-reducing agents for treatment of drilling fluids, frac fluids, flowback water and disposal water” (Ecolab USA Inc., priority 2012, dated 2018)
